The term Kd denotes the constant that tells how readily two partners part at equilibrium. Read a high Kd as lower affinity.

The values below come from PMC3477848 (Biochemistry, 2012).

Holding throughout (experiment): fluorescence anisotropy
(In fluorescence polarisation assays a small probe gives low polarisation when free and higher when bound to something large.)

For data set [1], the target named is T1, Dpo4 (SsoDpo4, Y-family DNA polymerase) (Sulfolobus solfataricus, UniProt Q97W02 1-352).
T1 sequence: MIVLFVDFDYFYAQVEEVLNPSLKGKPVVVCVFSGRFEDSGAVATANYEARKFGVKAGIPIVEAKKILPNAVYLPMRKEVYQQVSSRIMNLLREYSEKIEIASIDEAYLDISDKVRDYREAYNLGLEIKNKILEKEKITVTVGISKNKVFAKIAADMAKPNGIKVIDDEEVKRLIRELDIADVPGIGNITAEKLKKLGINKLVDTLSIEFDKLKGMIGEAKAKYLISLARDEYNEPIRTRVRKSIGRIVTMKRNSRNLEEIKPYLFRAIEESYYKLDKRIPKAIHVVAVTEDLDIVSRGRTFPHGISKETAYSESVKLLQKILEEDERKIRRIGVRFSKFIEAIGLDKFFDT

For data set [2], the target named is T2, Dpo1 exo- (SsoDpo1, B-family DNA polymerase) (Sulfolobus solfataricus, UniProt P26811 1-882, D231A;D318A).
T2 sequence: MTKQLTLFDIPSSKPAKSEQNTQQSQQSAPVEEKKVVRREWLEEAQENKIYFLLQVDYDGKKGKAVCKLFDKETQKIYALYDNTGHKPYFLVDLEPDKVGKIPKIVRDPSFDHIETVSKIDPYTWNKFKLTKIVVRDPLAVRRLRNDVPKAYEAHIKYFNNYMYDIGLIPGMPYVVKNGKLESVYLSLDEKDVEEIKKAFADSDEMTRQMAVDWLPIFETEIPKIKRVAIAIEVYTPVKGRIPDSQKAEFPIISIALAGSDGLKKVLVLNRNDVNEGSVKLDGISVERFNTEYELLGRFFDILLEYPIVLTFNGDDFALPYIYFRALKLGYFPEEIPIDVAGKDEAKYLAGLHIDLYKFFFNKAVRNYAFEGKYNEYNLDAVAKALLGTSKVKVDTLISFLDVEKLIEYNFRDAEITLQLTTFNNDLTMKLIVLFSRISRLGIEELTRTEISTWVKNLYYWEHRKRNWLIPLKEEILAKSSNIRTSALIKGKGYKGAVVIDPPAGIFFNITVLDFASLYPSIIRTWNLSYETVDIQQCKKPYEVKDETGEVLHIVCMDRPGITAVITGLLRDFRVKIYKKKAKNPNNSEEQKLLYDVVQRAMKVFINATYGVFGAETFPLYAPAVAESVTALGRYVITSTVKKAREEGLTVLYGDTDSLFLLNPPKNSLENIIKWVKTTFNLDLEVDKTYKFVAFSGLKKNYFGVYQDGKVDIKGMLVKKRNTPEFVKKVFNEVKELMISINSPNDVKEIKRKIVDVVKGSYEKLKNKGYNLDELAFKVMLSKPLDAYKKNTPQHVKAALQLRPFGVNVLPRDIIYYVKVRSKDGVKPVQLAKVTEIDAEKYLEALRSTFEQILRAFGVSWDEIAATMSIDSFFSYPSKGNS

Data set [3] addresses T1, Dpo4 (SsoDpo4, Y-family DNA polymerase). The source holds these as a separate data set.
Data set [4] shares this target. This is another data set of the same source.
The target in data set [5] is T2, Dpo1 exo- (SsoDpo1, B-family DNA …). The source holds these as a separate data set.
Data set [6] shares this target. The source holds these as a separate data set.
Data set [7] shares this target. This is another data set of the same source.
The target in data set [8] is T1, Dpo4 (SsoDpo4, Y-family DNA polymerase). This is another data set of the same source.

Read-outs that look alike come from different tables or passages of the source.

With TTTTTTTTTTCCCGGGCCGGCGTTTCGCCGGCCCGGG (structured_DNA) [37-nt hairpin primer-template, 5'-Cy3], the Kd in data set [1] was 155 ± 65 nM; in data set [2] it was 144 ± 15 nM; in data set [3] it was 125 ± 51 nM; in data set [4] it was 164 ± 9 nM; in data set [5], 198 ± 26 nM; in data set [6], 113 ± 32 nM. Moreover, the Kd stood at 208 ± 57 nM in data set [7] and 329 ± 107 nM in data set [8].
